Source: patent US20240033318A1 (OHIO STATE INNOVATION FOUNDATION, published 2024)
Non-standard residues stand in square brackets, D forms with d. Primed or numbered codes have the meaning given here. No end group written: not given here. *: point of attachment. FITC′ = fluorescein isothiocyanate (fluorescein label attached to the Lys side chain); FITC″ = fluorescein isothiocyanate, fluorescein thiocarbamoyl on Lys NZ; FITC = O=C1OC2(c3ccc(O)cc3Oc3cc(O)ccc32)c2ccc(NC(=S)*)cc21; Benzoyl(2,3-Cl2) = O=C(c1cccc(Cl)c1Cl)*; Phe(4-F) = N[C@@H](Cc1ccc(F)cc1)C(=O)O; Tle = CC(C)(C)[C@H](N)C(=O)O; acyl = not defined here; Bz = O=C(c1ccccc1)*; βAla = NCCC(=O)O

B1: CNI103: (DCNA)-Tle-Ile-Bhv-Ile-Thr-Gln-His-(D-Leu)-Ser-miniPEG-Lys{[cyclo-(Gln-(D-Arg)-Arg-(D-Arg)-Arg-(2-Nal)-(D-Phe)]}-NH2 (peptide)
peptide: XIXITQHLSKQRRRRXF
modifications: not fully specified; N-terminal DCNA (2,3-dichlorisonicotinamide; Table 8 prints DCN); Tle at 1; Bhv = L-β-hydroxyvaline at 3 (Table 8 prints Hva); D-Leu; miniPEG; Lys side chain carrying cyclo-(Gln-(D-Arg)-Arg-(D-Arg)-Arg-(2-Nal)-(D-Phe)); C-terminal amide
notes: also called CN103; compound 43
B2: CNI101: (DCNA)-Tle-Ile-Tle-Ile-Thr-Gln-His-(D-Leu)-Ser-miniPEG-Lys{[cyclo-(Gln-(D-Arg)-Arg-(D-Arg)-Arg-(2-Nal)-(D-Phe)]}-NH2 (peptide)
peptide: XIXITQHLSKQRRRRXF
modifications: not fully specified; N-terminal DCNA (2,3-dichlorisonicotinamide; Table 8 prints DCN, 2,3-dichloro-4-pyridinyl); Tle at 1 and 3; D-Leu; miniPEG; Lys side chain carrying cyclo-(Gln-(D-Arg)-Arg-(D-Arg)-Arg-(2-Nal)-(D-Phe)); C-terminal amide
notes: also called compound 41; 41
B3: control: (DCB)-Tle-Ile-Tle-Ile-Thr-Gln-His-(D-Leu)-Ser-(β-Ala)-Lys{[cyclo-(Gln-(D-Arg)-Arg-(D-Arg)-Arg-(2-Nal)-(D-Phe)]}-NH2 (peptide)
peptide: XIXITQHLSXKQRRRRXF
modifications: not fully specified; N-terminal DCB (2,3-dichlorobenzoyl); Tle at 1 and 3; D-Leu; β-Ala; Lys side chain carrying cyclo-(Gln-(D-Arg)-Arg-(D-Arg)-Arg-(2-Nal)-(D-Phe)); C-terminal amide
notes: It is therefore kept as a separate molecule
B4: CNI88 (peptide)
peptide: XIXITYEXGAKFXRRRRQ
modifications: not fully specified; sequence of peptide 13 (Dcb-ZIZIT-Tyr-glu-Fpa-Gly) with cyclic CPP9, cyclo(fΦRrRrQ), attached to the C-terminus through an amide bond and a βAla-Lys linker; Z = Tle; D-Glu; Fpa = …
B5: CNI93 (peptide)
peptide: XIXITQHLSXKFXRRRRQ
modifications: not fully specified; sequence of peptide 14 (Dcb-ZIZIT-Gln-His-leu-Ser) with cyclic CPP9, cyclo(fΦRrRrQ), attached to the C-terminus through an amide bond and a βAla-Lys linker; Z = Tle; D-Leu
notes: A biotinylated form was used in the macrophage experiment
B6: compound 51: (DFNA)-Tle-Chg-Psa-Ile-Thr-Gln-His-(D-Leu)-Ser-miniPEG-Lys{[cyclo-(Gln-(D-Arg)-Arg-(D-Arg)-Arg-(2-Nal)-(D-Phe)]}-NH2 (peptide)
peptide: XXXITQHLSKQRRRRXF
modifications: not fully specified; N-terminal DFNA (2,3-difluoroisonicotinamide); Tle; Chg = L-cyclohexylglycine; Psa = L-penicillamine sulfonic acid; D-Leu; miniPEG; Lys side chain carrying cyclo-(Gln-(D-Arg)-Arg-(D-Arg)-Arg-(2-Nal)-(D-Phe)); C-terminal amide
B7: compound 48: (DFNA)-Tle-Ile-Bhv-Ile-Thr-Gln-His-(D-Leu)-Ser-miniPEG-Lys{[cyclo-(Gln-(D-Arg)-Arg-(D-Arg)-Arg-(2-Nal)-(D-Phe)]}-NH2 (peptide)
peptide: XIXITQHLSKQRRRRXF
modifications: not fully specified; N-terminal DFNA (2,3-difluoroisonicotinamide); Tle; Bhv = L-β-hydroxyvaline; D-Leu; miniPEG; Lys side chain carrying cyclo-(Gln-(D-Arg)-Arg-(D-Arg)-Arg-(2-Nal)-(D-Phe)); C-terminal amide
B8: compound 45: (DCNA)-Tle-Chg-Bhv-Ile-Thr-Gln-His-(D-Leu)-Ser-miniPEG-Lys{[cyclo-(Gln-(D-Arg)-Arg-(D-Arg)-Arg-(2-Nal)-(D-Phe)]}-NH2 (peptide)
peptide: XXXITQHLSKQRRRRXF
modifications: not fully specified; N-terminal DCNA; Tle; Chg = L-cyclohexylglycine; Bhv = L-β-hydroxyvaline; D-Leu; miniPEG; Lys side chain carrying cyclo-(Gln-(D-Arg)-Arg-(D-Arg)-Arg-(2-Nal)-(D-Phe)); C-terminal amide
B9: compound 46: (DCNA)-Tle-Ile-Psa-Ile-Thr-Gln-His-(D-Leu)-Ser-miniPEG-Lys{[cyclo-(Gln-(D-Arg)-Arg-(D-Arg)-Arg-(2-Nal)-(D-Phe)]}-NH2 (peptide)
peptide: XIXITQHLSKQRRRRXF
modifications: not fully specified; N-terminal DCNA; Tle; Psa = L-penicillamine sulfonic acid; D-Leu; miniPEG; Lys side chain carrying cyclo-(Gln-(D-Arg)-Arg-(D-Arg)-Arg-(2-Nal)-(D-Phe)); C-terminal amide
B10: compound 44 (CNI104): (DCNA)-Tle-Chg-Bhv-Ile-Thr-Gln-His-(D-Leu)-Ser-βAla-Lys{[cyclo-(Gln-(D-Arg)-Arg-(D-Arg)-Arg-(2-Nal)-(D-Phe)]}-NH2 (peptide)
peptide: XXXITQHLSXKQRRRRXF
modifications: not fully specified; N-terminal DCNA (2,3-dichlorisonicotinamide); Tle; Chg = L-cyclohexylglycine; Bhv = L-β-hydroxyvaline; D-Leu; βAla; Lys side chain carrying cyclo-(Gln-(D-Arg)-Arg-(D-Arg)-Arg-(2-Nal)-(D-Phe)); C-terminal amide
B11: peptide 12: Dcb-ZIZIT-miniPEG-Lys (FITC) (peptide)
peptide: {Benzoyl(2,3-Cl2)}-[Tle]I[Tle]IT[miniPEG]K(FITC′)
B12: CNI95 (unlabeled) (peptide)
peptide: XIXITQHLSKFXRRRRQ
modifications: not fully specified; sequence of peptide 14 (Dcb-ZIZIT-Gln-His-leu-Ser) conjugated to CPP9, cyclo(fΦRrRrQ), through a miniPEG-Lys linker; Z = Tle; D-Leu
B13: CNI95 labeled at the C-terminus with FITC (peptide)
peptide: XIXITQHLSKFXRRRRQ
modifications: not fully specified; sequence of peptide 14 (Dcb-ZIZIT-Gln-His-leu-Ser) conjugated to CPP9, cyclo(fΦRrRrQ), through a miniPEG-Lys linker; FITC at the C-terminus; Z = Tle; D-Leu
notes: also called FITC-labeled CNI95
B14: peptide 13: Dcb-ZIZIT-Tyr-glu-Fpa-Gly-βAla-Lys (FITC) (peptide)
peptide: {Benzoyl(2,3-Cl2)}-[Tle]I[Tle]ITY[dE][Phe(4-F)]G[βAla]K(FITC)
B15: peptide 2: benzoyl-ZIZITGPHEEYK(FITC)-NH2 (peptide)
peptide: Bz-[Tle]I[Tle]ITGPHEEYK(FITC″)-NH2
B16: peptide 11: acyl-ZIZITGPHEEYK(FITC)-NH2 (peptide)
peptide: [Tle]I[Tle]ITGPHEEYK(FITC)-NH2
modifications: not fully specified (N-terminus); printed as acyl-ZIZITGPHEEYK(FITC)-NH2; also: N-terminal acyl group unspecified (halogenated/alkylated benzoyl, drawing only)
B17: peptide 1: Ac-GPHPZIZITGPHEEYK(FITC)-NH2 (peptide)
peptide: Ac-GPHP[Tle]I[Tle]ITGPHEEYK(FITC″)-NH2
B18: peptide 10: acyl-ZIZITGPHEEYK(FITC)-NH2 (peptide)
peptide: [Tle]I[Tle]ITGPHEEYK(FITC)-NH2
modifications: not fully specified (N-terminus); printed as acyl-ZIZITGPHEEYK(FITC)-NH2; also: N-terminal acyl group unspecified (halogenated/alkylated benzoyl, drawing only)
B19: peptide 9: Dcb-ZIZITGPHEEYK(FITC)-NH2 (peptide)
peptide: {Benzoyl(2,3-Cl2)}-[Tle]I[Tle]ITGPHEEYK(FITC″)-NH2
B20: peptide 3: cyclopentylcarbonyl-ZIZITGPHEEYK(FITC)-NH2 (peptide)
peptide: cyclopentylcarbonyl-[Tle]I[Tle]ITGPHEEYK(FITC″)-NH2
B21: peptide 7: acyl-ZIZITGPHEEYK(FITC)-NH2 (peptide)
peptide: acyl-[Tle]I[Tle]ITGPHEEYK(FITC″)-NH2
modifications: reading uncertain; also: N-terminal acyl: halogenated and/or alkylated benzoyl, not named, printed as peptide 7: acyl-ZIZITGPHEEYK(FITC)-NH2
B22: peptide 4: cyclohexylcarbonyl-ZIZITGPHEEYK(FITC)-NH2 (peptide)
peptide: cyclohexylcarbonyl-[Tle]I[Tle]ITGPHEEYK(FITC″)-NH2
B23: peptide 8: acyl-ZIZITGPHEEYK(FITC)-NH2 (peptide)
peptide: acyl-[Tle]I[Tle]ITGPHEEYK(FITC″)-NH2
modifications: reading uncertain; also: N-terminal acyl: halogenated and/or alkylated benzoyl, not named, printed as peptide 8: acyl-ZIZITGPHEEYK(FITC)-NH2
B24: peptide 14: Dcb-ZIZIT-Gln-His-leu-Ser-βAla-Lys (FITC) (peptide)
peptide: {Benzoyl(2,3-Cl2)}-[Tle]I[Tle]ITQH[dL]S[βAla]K(FITC″)
notes: also called FITC-labeled peptide 14
B25: peptide 15: Dcb-ZIZIT-Gln-His-leu-His-βAla-Lys (FITC) (peptide)
peptide: {Benzoyl(2,3-Cl2)}-[Tle]I[Tle]ITQH[dL]H[βAla]K(FITC″)

Biological target: T1, calcineurin expressed as the glutathione S-transferase fusion protein (GST-CN) (UniProt Q08209 2-347)
T1 construct: also called CN-GST; recombinant GST-CN; not shown: glutathione S-transferase (GST) fusion partner
Test: FP competition (Condition E): 50 nM probe, 50 nM CN-GST, unlabeled compound titrated
Description: Binding Affinity. […] Serial dilutions of each unlabeled compound were prepared in pH 7.4 PBS containing 0.01% Triton-X100, to which was added the incubation solution and mixed for 1 hr at RT after which 20 μL sample was pipetted into 384-well black-on-black microplates and fluorescence polarization was measured using a TECAN Infinite M1000 plate reader. IC₅₀ values were calculated using GraphPad PRISM v.

T1 sequence (Q08209 2-347): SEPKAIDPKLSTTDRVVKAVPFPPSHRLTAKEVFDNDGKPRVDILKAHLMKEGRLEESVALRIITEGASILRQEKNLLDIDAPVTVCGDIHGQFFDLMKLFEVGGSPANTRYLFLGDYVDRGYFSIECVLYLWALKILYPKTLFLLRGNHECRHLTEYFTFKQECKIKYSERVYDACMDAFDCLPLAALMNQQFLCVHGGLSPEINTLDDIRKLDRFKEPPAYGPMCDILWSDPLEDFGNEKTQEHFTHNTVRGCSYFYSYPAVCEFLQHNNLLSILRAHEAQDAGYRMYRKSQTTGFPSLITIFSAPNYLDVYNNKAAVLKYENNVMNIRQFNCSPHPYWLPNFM

Row | Binder | IC50
1 | B1 | 223 nM
2 | B2 | 184 nM
3 | B3 | 857 nM

Biological target: T1, calcineurin expressed as the …
Test: FA-based competition (FP): 50 nM FITC-labeled peptide 14 as probe, 100 nM GST-CN, competitor titrated
Description: (§1) Serial dilutions of competitor peptides were prepared in PBS with 0.01% Trition-X100 and then added to the incubation solution and equilibrated at RT with gentle mixing for 1 h. Samples were pipetted into 384-well black microplates and FP signal was measured using a TECAN Infinite M1000 plate reader and analyzed using GraphPad PRISM v.6.

Row | Binder | IC50
4 | B4 | 426 nM
5 | B5 | 127 nM

Biological target: T1, calcineurin expressed as the …
Test: FP competition: 15 nM FITC-labeled compound 35 as probe, 15 nM GST-CN, unlabeled inhibitor titrated
Description: (§2) Serial dilutions of unlabeled inhibitor were prepared in pH 7.4 PBS containing 0.01% Triton-X100, to which was added the incubation solution and mixed for 1 h at RT. 20 μL aliquots from each concentration were added into 384-well black-on-black microplates and fluorescence polarization was measured using a TECAN Infinite M1000 plate reader. IC50 values were calculated using GraphPad PRISM v. 7.

Row | Binder | IC50
6 | B1 | 223 nM
7 | B2 | 184 nM
8 | B6 | 96.5 nM
9 | B7 | 73.5 nM
10 | B8 | 45.6 nM
11 | B9 | 107 nM
12 | B10 | 44.9 nM

Biological target: T1, calcineurin expressed as the …
Test: direct binding by FA
Description: (§3) Fluorescence Polarization. Fluorescence polarization (FP) experiments were carried out to measure binding affinity in both direct and competitive binding experiments using GST-CN and peptides prepared as mentioned previously. […] Solutions were incubated for 1 h at RT with gentle mixing and then pipetted into black 384-well microplates. Fluorescence polarization was measured on a TECAN Infinite M1000 plate reader and titration curves were fitted using both KaelidaGraph v 3.6 and GraphPad PRISM to the equation: […]

Row | Binder | fold lower CN-binding affinity (relative to peptide 14)
13 | B5 | 8 fold

Biological target: mouse plasma proteins
Test: rapid equilibrium dialysis (RED) of CNI103 in mouse plasma, 37° C., 5 hours, LC/MS/MS

Row | Binder | % Binding
14 | B1 | 97.6%

Biological target: T1, calcineurin expressed as the …
Test: fluorescence anisotropy (FA), direct binding

Row | Binder | fold decrease in binding affinity (relative to peptide 9)
15 | B11 | 17 fold

Biological target: T1, calcineurin expressed as the …
Test: FA-based competition assay, inhibition of the binding of peptide 14 to CN
Description: as §1
(§4) Additional characterization of CNI95 (including in vivo evaluation) is currently ongoing.

Row | Binder | fold higher potency (relative to CNI93)
16 | B12 | ~5 fold

Biological target: T1, calcineurin expressed as the …
Test: fluorescence anisotropy (FA), direct binding of FITC-labeled peptide
Description: as §3, §4

Row | Binder | Kd
17 | B13 | 17 nM

Biological target: T1, calcineurin expressed as the …
Test: FP competition with FITC-labeled compound 35 for GST-CN
Description: as §2

Row | Binder | fold higher potency (relative to CNI103)
18 | B10 | ~5 fold

Biological target: T1, calcineurin expressed as the …
Test: fluorescence anisotropy (FA), direct binding of FITC-labeled peptide to GST-CN
Description: as §3

Row | Binder | Kd
19 | B14 | 12 nM
20 | B15 | 224 nM
21 | B16 | 77 nM
22 | B11 | 700 nM
23 | B17 | 92 nM
24 | B18 | 189 nM
25 | B19 | 41 nM
26 | B20 | 357 nM
27 | B21 | 32 nM
28 | B22 | 207 nM
29 | B23 | 74 nM
30 | B24 | 9.1 nM
31 | B25 | 4.7 nM
